Experimental data as given in patent US8889419 (INDIANA UNIVERSITY RESEARCH AND TECHNOLOGY, dated 2014).
One block for each binder: values may come before it.

Columns and labels:
[1] = molecular target: T1, integrin VLA-4 on HL60 cells (UniProt P13612 34-1032; P05556 21-798); test: adhesion of HL60 cells to fragment-coated plates
T1 construct: whole, on cells; HL60 cells express VLA-4 but not VLA-5 by flow cytometry; also called CD49d

[2] = molecular target: T1, integrin VLA-4 on HL60 cells; test: adhesion of HL60 cells (VLA-4 positive) to fragment-coated plates

T1 sequence (P13612 34-1032, chain 1 of 2): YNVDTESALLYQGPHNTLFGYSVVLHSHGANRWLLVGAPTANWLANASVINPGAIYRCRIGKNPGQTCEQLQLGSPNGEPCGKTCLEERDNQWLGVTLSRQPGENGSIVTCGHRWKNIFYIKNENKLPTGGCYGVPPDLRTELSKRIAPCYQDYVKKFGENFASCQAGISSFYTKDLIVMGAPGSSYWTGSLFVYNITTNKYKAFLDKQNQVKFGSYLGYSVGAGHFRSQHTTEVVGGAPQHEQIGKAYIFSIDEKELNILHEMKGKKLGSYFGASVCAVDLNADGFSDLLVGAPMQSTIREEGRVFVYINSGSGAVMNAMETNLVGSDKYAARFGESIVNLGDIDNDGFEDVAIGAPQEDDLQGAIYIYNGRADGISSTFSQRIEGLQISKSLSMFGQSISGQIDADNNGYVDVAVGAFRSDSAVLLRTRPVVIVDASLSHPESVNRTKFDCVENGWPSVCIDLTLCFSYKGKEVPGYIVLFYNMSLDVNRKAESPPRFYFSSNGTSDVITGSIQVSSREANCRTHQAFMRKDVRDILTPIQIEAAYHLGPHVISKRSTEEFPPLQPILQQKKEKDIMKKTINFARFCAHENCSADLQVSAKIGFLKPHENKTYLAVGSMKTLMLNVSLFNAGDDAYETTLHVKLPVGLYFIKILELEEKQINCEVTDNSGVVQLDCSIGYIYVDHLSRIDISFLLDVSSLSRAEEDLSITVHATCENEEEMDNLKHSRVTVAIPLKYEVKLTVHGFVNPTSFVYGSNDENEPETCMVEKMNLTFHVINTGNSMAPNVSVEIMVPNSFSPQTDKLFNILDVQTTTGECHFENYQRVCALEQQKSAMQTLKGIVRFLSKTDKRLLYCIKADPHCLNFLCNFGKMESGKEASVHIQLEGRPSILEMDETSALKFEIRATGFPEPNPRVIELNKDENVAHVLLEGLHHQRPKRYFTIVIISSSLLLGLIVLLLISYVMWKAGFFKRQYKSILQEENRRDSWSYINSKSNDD
T1 sequence (P05556 21-798, chain 2 of 2): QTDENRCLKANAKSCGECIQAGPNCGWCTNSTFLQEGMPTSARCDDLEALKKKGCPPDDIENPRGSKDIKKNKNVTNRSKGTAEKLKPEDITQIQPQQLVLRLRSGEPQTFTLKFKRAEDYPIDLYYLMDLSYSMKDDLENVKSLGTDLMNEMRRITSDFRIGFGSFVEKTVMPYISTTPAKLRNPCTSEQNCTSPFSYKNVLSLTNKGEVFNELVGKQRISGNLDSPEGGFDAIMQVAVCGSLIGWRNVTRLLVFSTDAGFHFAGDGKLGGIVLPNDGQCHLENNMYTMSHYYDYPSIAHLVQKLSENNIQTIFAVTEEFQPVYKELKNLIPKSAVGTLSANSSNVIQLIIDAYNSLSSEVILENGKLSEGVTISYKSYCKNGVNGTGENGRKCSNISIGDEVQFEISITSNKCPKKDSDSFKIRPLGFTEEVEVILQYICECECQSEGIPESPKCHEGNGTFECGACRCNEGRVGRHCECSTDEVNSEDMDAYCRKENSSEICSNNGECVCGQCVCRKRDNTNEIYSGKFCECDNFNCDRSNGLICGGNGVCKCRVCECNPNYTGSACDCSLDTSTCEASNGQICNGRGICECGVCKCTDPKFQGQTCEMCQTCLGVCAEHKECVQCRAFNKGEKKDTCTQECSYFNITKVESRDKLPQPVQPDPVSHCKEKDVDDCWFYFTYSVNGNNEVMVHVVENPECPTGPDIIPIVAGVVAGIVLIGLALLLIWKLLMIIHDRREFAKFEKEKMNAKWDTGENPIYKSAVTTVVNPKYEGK

binding result [1]: no binding (tested: 2 µg/cm^2 coating)
B1: recombinant fibronectin fragment H-271 (other, human, UniProt P02751 1812-2082, looked up)
chain: AIPAPTDLKFTQVTPTSLSAQWTPPNVQLTGYRVRVTPKEKTGPMKEINLAPDSSSVVVSGLMVATKYEVSVYALKDTLTSRPAQGVVTTLENVSPPRRARVTDATETTITISWRTKTETITGFQVDAVPANGQTPIQRTIKPDVRSYTITGLQPGTDYKIYLYTLNDNARSSPVVIDASTAIDAPSNLRFLATTPNSLLVSWQPPRARITGYIIKYEKPGSPPREVVPRPRPGVTEATITGLEPGTEYTIYVIALKNNQKSEPLIGRKKT

binding result [2]: binds
B2: recombinant fibronectin fragment H-296 (other, human, UniProt P02751 1812-2082, looked up)
chain: AIPAPTDLKFTQVTPTSLSAQWTPPNVQLTGYRVRVTPKEKTGPMKEINLAPDSSSVVVSGLMVATKYEVSVYALKDTLTSRPAQGVVTTLENVSPPRRARVTDATETTITISWRTKTETITGFQVDAVPANGQTPIQRTIKPDVRSYTITGLQPGTDYKIYLYTLNDNARSSPVVIDASTAIDAPSNLRFLATTPNSLLVSWQPPRARITGYIIKYEKPGSPPREVVPRPRPGVTEATITGLEPGTEYTIYVIALKNNQKSEPLIGRKKTDELPQLVTLPHPNLHGPEILDVPST
notes: Expressed in E. coli
